This note sets out measurements from PMC6105367 (The FEBS journal, 2018).

The data set deals with the molecule itself. The data set is described as follows: negative-stain electron microscopy.

B1: full-length zebrafish ASC, recombinant, His-NusA-GB1 tag cleaved off (natural protein, UniProt Q9I9N6 1-203, looked up)
chain: MAESFKEHLQEAFEDLGADNLRKFKSKLGDRRQEPRVTKSAIEKLKDEIDLADLMVGVFTSKDAVSVTVEILRAIKCNAVADDLLRNTGQSESKGALSDESKCASSKAVSKVAFSKVNFIDEHWKELIDRVNNVDPILDILRQKKVITNEDYCTIRNKETPQKKMRELLTGPITCAGNKGKEVLYDALRESNKFLMDDLEDAE
For B1, the binding result is “binds”.
